The supplement of paper PMC9170038

Test system: MS2 coat protein
Assay: apparent KD of MS2 coat protein; designed switch direction (-1 OFF switch, 1 ON switch): -1; higher = weaker reporter binding
Procedure, shortened: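 RNA switches sharing common flanks were transcribed by stalled E. coli RNA polymerase on Illumina chips. A doubling series of SNAP-549-labelled MS2 coat protein, from 0.7 or 1.5 nM to 3 µM, was applied in Tris-HCl pH 7.5 buffer with KCl, MgCl2, BSA, DTT, tRNA and Tween-20. Each step lasted 0.8–1.5 h at the bottom of the series and 10–20 min at the top. Normalised cluster fluorescence was curve-fitted, giving apparent KD as the per-design median over clusters.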

[1] = Eterna round: R95, input ligand: microRNA oligo, concentration not stated
[2] = input ligand: microRNA oligo, concentration not stated
[3] = Eterna round: R95, input ligand: FMN 200 uM
[4] = Eterna round: R95, input ligand: none

## UGAUCAAAUGUCAGGAUAUGCUGUUGUAAUCAACAGCAGAAGGGACAUGAGGAUCACCCAUGUCUUGUCGAUUU [Magic-03] (puzzle: Brourd's mod of Exclusion 4)
[1]
  apparent KD of MS2 coat protein: 13.8 nM

## GAAUAGCGAGGAUAUGCAAUGAAGAUCGUACGAUAUGGCUGACAUGAGGAUCACCCAUGUAGAAGGCGCUGAUC [EX2 #14] (Eterna round: R97, puzzle: Exclusion 2)
Input ligand: FMN 200 uM
  apparent KD of MS2 coat protein: 55.1 nM
Input ligand: none
  apparent KD of MS2 coat protein: 53.7 nM

## AUCGUGCAGCUUUGCUGUACGAGUACAUGAGGAUCACCCAUGUAGGAUAUGGUACGCUUUGCGUGCUAGAAGGAUAUGUGUUUG [EX ENG3 1.44] (Eterna round: R96, puzzle: Exclusion NG 3)
Input ligand: FMN 200 uM
  apparent KD of MS2 coat protein: 58.6 nM
[2]
  apparent KD of MS2 coat protein: 29.8 nM
Input ligand: none
  apparent KD of MS2 coat protein: 43.4 nM

## CCUCUGUAAGGAUAUACGGAGACCACUGGAAUCAGUGGAAAGUAGAAGGUACAUGAGGAUCACCCAUGUGAGAA [Laveatisce] (Eterna round: R96, puzzle: Exclusion 4)
[2]
  apparent KD of MS2 coat protein: 67.9 nM

## AGACAGUCAGGAUAUACAUGAGGAUCACCCAUGUUGAGAUGAGAAAGGGCAGGAAUAGGUAGAAGGGACGAGAG [JR_Exclu3_Sub037] (puzzle: Exclusion 3)
[3]
  apparent KD of MS2 coat protein: 30.5 nM
[1]
  apparent KD of MS2 coat protein: 20.1 nM
[4]
  apparent KD of MS2 coat protein: 26.2 nM

## AAAAUAAAAGCAGGAUAUCGACCUCCCAAGUGGCGAGAAGGGCUAGACGGGCGGUCUAACAUGAGGAUCACCCAUGUCAACAAA [Soorante] (Eterna round: R96, puzzle: Exclusion NG 1)
Input ligand: FMN 200 uM
  apparent KD of MS2 coat protein: 93.4 nM
[2]
  apparent KD of MS2 coat protein: 23.5 nM
Input ligand: none
  apparent KD of MS2 coat protein: 34.7 nM

## UUUUUAUAUGAAGGAUAUACUUAACAUGAGGAUCACCCAUGUGGUGUUGUGAGUGAGUGAGUUUAGUAGAAGGUCAAGUAUUAU [JMF's solution 38] (Eterna round: R96, puzzle: Exclusion NG 2)
Input ligand: FMN 200 uM
  apparent KD of MS2 coat protein: 776 nM
[2]
  apparent KD of MS2 coat protein: 265 nM
Input ligand: none
  apparent KD of MS2 coat protein: 464 nM

## UGUGGACAUGAGGAUCACCCAUGUCAGCCGUGUCCACCGAGAGAGGAUAUUGGUCAACCAGGGACUAAGAAGGCUCAGAGCUGG [Eternabot solution 47] (Eterna round: R96, puzzle: Exclusion NG 3)
Input ligand: FMN 200 uM
  apparent KD of MS2 coat protein: 30.3 nM
[2]
  apparent KD of MS2 coat protein: 37.4 nM
Input ligand: none
  apparent KD of MS2 coat protein: 46.4 nM

## AAUACAAGCUAUUGAUCCCACAUGAGGAUCACCCAUGUAGCUGGCGGUGACACCUCCAUUACGAUAGCUCGUCUUAU [Sensor-V1 #56] (Eterna round: R97, puzzle: Sensor, turn-off variant 1)
Input ligand: FMN 200 uM
  apparent KD of MS2 coat protein: 796 nM
Input ligand: none
  apparent KD of MS2 coat protein: 1670 nM

## GAUCCCAUUGUUAGGAUAUAUAGCCUAACGCGAGUGUAGAAGGGACAUGAGGAUCACCCAUGUGUGCAUUAGGG [Eternabot (L2) Solution 96] (Eterna round: R97, puzzle: Brourd's mod of Exclusion 4)
Input ligand: FMN 200 uM
  apparent KD of MS2 coat protein: 37.2 nM
Input ligand: none
  apparent KD of MS2 coat protein: 43.8 nM

## CGAGCUAAUGUGAGGAUAUACCUAUGGAUACAUAGGUAGAAGGCACAUGAGGAUCACCCAUGUCCUAUAGCUCG [jl-bmx4-4.55] (Eterna round: R97, puzzle: Brourd's mod of Exclusion 4)
Input ligand: FMN 200 uM
  apparent KD of MS2 coat protein: 241 nM
Input ligand: none
  apparent KD of MS2 coat protein: 304 nM

## AGCGUGUGAGAAGGAUAUCGACCCGAGACAGAUUGAGAAGGUCUCACAUGAGGAUCACCCAUGUGGACAGGGCGAGCUCCAGUC [Eternabot solution 11] (Eterna round: R96, puzzle: Exclusion NG 1)
Input ligand: FMN 200 uM
  apparent KD of MS2 coat protein: 28.3 nM
[2]
  apparent KD of MS2 coat protein: 14.6 nM
Input ligand: none
  apparent KD of MS2 coat protein: 23.4 nM

## GGAUCGAGUGUGAGGAUAUGCAGGUCCUUGGAUCUGCAGAAGGCACAUGAGGAUCACCCAUGUGGAGACGGUCC [Mat - Exclusion 4 - JL Mod - D75] (puzzle: Brourd's mod of Exclusion 4)
[3]
  apparent KD of MS2 coat protein: 406 nM
[1]
  apparent KD of MS2 coat protein: 64.2 nM
[4]
  apparent KD of MS2 coat protein: 110 nM

## UUAUUACAAGCAAGAUCCCACAUGAGGAUCACCCAUGUGCUCGUCUUAUAAGGUACAGUGACGAAAGUCACAGUACC [Sensor 3, v1 - 0] (puzzle: Sensor v3, turn-off variant 1)
[3]
  apparent KD of MS2 coat protein: 29.4 nM
[1]
  apparent KD of MS2 coat protein: 795 nM
[4]
  apparent KD of MS2 coat protein: 22.3 nM

## UCCCGUGAAGGAUAUGGUUACAGGCACAUGAGGAUCACCCAUGUCACCUCGAAUACCUGAUCAGAAGGUUACUCGA [Eternabot (Original) Solution 40] (Eterna round: R97, puzzle: Exclusion 5)
Input ligand: FMN 200 uM
  apparent KD of MS2 coat protein: 20.1 nM
Input ligand: none
  apparent KD of MS2 coat protein: 19.9 nM

## GAUUAUGCGAGCUUUAGGGACAUGAGGAUCACCCAUGUUCGUCUUAUUGGUCUAGAUGCACUGACAUACCUAAAUCU [JMF 79] (puzzle: Sensor v3, turn-off variant 1)
[3]
  apparent KD of MS2 coat protein: 15.9 nM
[1]
  apparent KD of MS2 coat protein: 19.1 nM
[4]
  apparent KD of MS2 coat protein: 16.3 nM

## CUGAGUAGUCAGGAUAUGCUGUACAAAAGUACAGCAGAAGGGAUUACAUGAGGAUCACCCAUGUGAACUUCAUG [)mei Ex6 B21] (Eterna round: R97, puzzle: Exclusion 6)
Input ligand: FMN 200 uM
  apparent KD of MS2 coat protein: 681 nM
Input ligand: none
  apparent KD of MS2 coat protein: 652 nM

## GGUGUGGCAGGAUAUACAUCGAAGGGUGCAAAGGGCUCGGCACAUGAGGAUCACCCAUGUAGAAGGGCCUACCA [Beated] (Eterna round: R96, puzzle: Exclusion 2)
Input ligand: FMN 200 uM
  apparent KD of MS2 coat protein: 25.3 nM
[2]
  apparent KD of MS2 coat protein: 13.6 nM
Input ligand: none
  apparent KD of MS2 coat protein: 15.6 nM

## AGCUGUGGCCGAGGAUAUCUGUUCCAUAAAACCGAAAUAUAAUCGGACAUGAGGAUCACCCAUGUAGAGAAGGCGGUCUCAGCA [Eli eng2 - 099] (Eterna round: R96, puzzle: Exclusion NG 2)
[2]
  apparent KD of MS2 coat protein: 18.3 nM

## AUUUAAUUUAAUAAGAUCACAUGAGGAUCACCCAUGUUAUAAUAGGAUAUCAGCUCGAAUAGAGCUGAGAAGGAUUAUAACAUG [ExNG3/9-A4] (Eterna round: R96, puzzle: Exclusion NG 3)
Input ligand: FMN 200 uM
  apparent KD of MS2 coat protein: 17.2 nM
[2]
  apparent KD of MS2 coat protein: 138 nM
Input ligand: none
  apparent KD of MS2 coat protein: 29 nM

## GUGGUCUAUGUAGGAUAUACGUUUGUGCGAUGCGUAGAAGGACAUGAGGAUCACCCAUGUGUGCGAGGAUCACCCGUGUGUUGU [double] (Eterna round: R96, puzzle: Exclusion NG 1)
Input ligand: FMN 200 uM
  apparent KD of MS2 coat protein: 158 nM
[2]
  apparent KD of MS2 coat protein: 83.9 nM
Input ligand: none
  apparent KD of MS2 coat protein: 100 nM

## GUGAUCUAUCAUGUAAUGAACAUGAGGAUCACCCAUGUAGGCAAGUUUUUUGCUCGUCACAUAAUAAGAUAGAUCAC [Antenna 19 - Jieux - Sensor, turn-off variant 1] (Eterna round: R97, puzzle: Sensor, turn-off variant 1)
Input ligand: FMN 200 uM
  apparent KD of MS2 coat protein: 14.3 nM
Input ligand: none
  apparent KD of MS2 coat protein: 13.2 nM

## AAAAUACAUGAGGAUCACCCAUGUGAGGAUAUGAGAGUCAACUCGAGAGAGUUGAUUCUCAGAAGGCACAUAAA [JR_Ex1_Sub066] (Eterna round: R97, puzzle: Exclusion 1)
Input ligand: FMN 200 uM
  apparent KD of MS2 coat protein: 228 nM
Input ligand: none
  apparent KD of MS2 coat protein: 53.7 nM

## UAUUGCAAGUGAGGAUAUGACAUGAGGAUCACCCAUGUAAAGGGAGUUGACUAUAUAGCAAGAUAUCAGAAGGCACAACUGUAU [JR_ExcNG2_Sub004] (Eterna round: R96, puzzle: Exclusion NG 2)
Input ligand: FMN 200 uM
  apparent KD of MS2 coat protein: 309 nM
[2]
  apparent KD of MS2 coat protein: 114 nM
Input ligand: none
  apparent KD of MS2 coat protein: 131 nM

## ACCCAACAUGAGGAUCACCCAUGUCAGGAUAUCCAAGCGAAAGCAAAAGCGAAAGCAAGGAGAAGGGACAAUGG [ChP 04-04-2015 #7] (puzzle: Exclusion 1)
[3]
  apparent KD of MS2 coat protein: 134 nM
[1]
  apparent KD of MS2 coat protein: 161 nM
[4]
  apparent KD of MS2 coat protein: 276 nM

## ACCCAACAUGAGGAUCACCCAUGUCAGGAUAUCCAUCAAAAGCACGAAAGGCGAGGAUGGAGAAGGGACAGAGG [ChP 04-04-2015 #2] (puzzle: Exclusion 1)
[3]
  apparent KD of MS2 coat protein: 335 nM
[1]
  apparent KD of MS2 coat protein: 178 nM
[4]
  apparent KD of MS2 coat protein: 128 nM

## AGCUGUGGCCGAGGAUAUCUACUAAUCCAAACCGAAAUAUAAUCGGACAUGAGGAUCACCCAUGUAGAGAAGGCGGUCUCAGCA [Eli eng2 - 076] (Eterna round: R96, puzzle: Exclusion NG 2)
[2]
  apparent KD of MS2 coat protein: 199 nM

## GGUCAGAUGGUAGGAUAUCCAUAUCGAGUGACUCUUUCAUAACAUGAGGAUCACCCAUGUCGGUGGGAGAAGGGCCGUACGGCG [salish99_ExNG02_R04_016] (Eterna round: R96, puzzle: Exclusion NG 2)
Input ligand: FMN 200 uM
  apparent KD of MS2 coat protein: 38.9 nM
[2]
  apparent KD of MS2 coat protein: 23.3 nM
Input ligand: none
  apparent KD of MS2 coat protein: 36.6 nM

## AGUACUAACACGGAAGUGUUAGUACAAUAAGCUUGUGUUACAUGAGGAUCACCCAUGUCCUCAUAAGCUCGUCUUAU [Mat - Sensor v3 - Turn-off var 2 - D61] (puzzle: Sensor v3, turn-off variant 2)
[3]
  apparent KD of MS2 coat protein: 113 nM
[1]
  apparent KD of MS2 coat protein: 12.4 nM
[4]
  apparent KD of MS2 coat protein: 112 nM

## UUUACCAGAGGAUAUGCGAAUAAAUAAAACUUUUUUUUUUAACAUGAGGAUCACCCAUGUAGAAGGCUGCAUUU [Ex2 #29] (Eterna round: R97, puzzle: Exclusion 2)
Input ligand: FMN 200 uM
  apparent KD of MS2 coat protein: 25.5 nM
Input ligand: none
  apparent KD of MS2 coat protein: 28.2 nM

## AGUUGGCGAGGAUAUACAUGAGGAUCACCCAUGUAUGAGAUACGAGUAAGGUAAAUAUGUAGAAGGCGCUGACA [JR_Ex3_Sub077] (Eterna round: R97, puzzle: Exclusion 3)
Input ligand: FMN 200 uM
  apparent KD of MS2 coat protein: 52 nM
Input ligand: none
  apparent KD of MS2 coat protein: 16.8 nM

## AAUAAUAGGGAGGAUAUCGUAUCGGAAACGAUACGAGAAGGUCUAACAUGAGGAUCACCCAUGUUCCUCAAUAA [Fiskers Ex 6 - 5] (puzzle: Exclusion 6)
[3]
  apparent KD of MS2 coat protein: 68.3 nM
[1]
  apparent KD of MS2 coat protein: 40.6 nM
[4]
  apparent KD of MS2 coat protein: 45.7 nM

## GUUAUGUCAGGAUAUGCUAAUGAUGAGUGCUCAGACAUGAUGCAGAAGGGACAUGAGGAUCACCCAUGUACUGA [EX4 #12] (Eterna round: R97, puzzle: Exclusion 4)
Input ligand: FMN 200 uM
  apparent KD of MS2 coat protein: 102 nM
Input ligand: none
  apparent KD of MS2 coat protein: 35.3 nM
